# Measurements as given in the RNAGym collection of RNA variant scans (doi:10.7554/elife.80360).
# B1: Hairpin Ribozyme (parent)
# chain: GUCCUCUUUCACGUGCGCGUGAAAGAGAGAAGUGAACCAGAGAAACACACGUUGUGGUAUAUUACCUGGUA
# Variants of: B1
# Experiment: self-cleavage, relative activity (ratio to wild type); higher = more cleavage; co-transcriptional
row,Variant,self-cleavage
1,G40C G51C,0.127
2,G40C G51U,0.131
3,G40A A61G,0.139
4,A43G G51C,0.107
5,A43G G51A,0.0738
6,G40U U60C,0.148
7,A43C A59C,0.195
8,G40C U67G,0.157
9,A41U A45U,0.0714
10,A41U U63A,0.105
11,A41U G57A,0.145
12,A41U G57C,0.178
13,G42C G54U,0.17
14,G42C G54A,0.159
15,A41C U60A,1.17
16,A41C U60C,1.27
17,G40U C50A,0.0746
18,G40U C50G,0.136
19,G42C A59G,0.195
20,G40C C46A,0.155
21,A43G A47G,0.196
22,A41U C48G,0.241
23,A41C A49C,0.217
24,G40U U62G,0.111

row,Variant,self-cleavage
1,G40U A49G,0.175
2,A43C A44C,0.259
3,A41C C46G,0.117
4,A41G G54U,0.577
5,A41U G54C,0.891
6,A43G C50U,0.198
7,A41U G68C,0.262
8,A41U G68U,0.423
9,G42A C50G,0.128
10,G42A C50U,0.106
11,G42C A45C,0.0604
12,G42C G68C,0.151
13,G42C G68A,0.119
14,G42C G68U,0.138
15,G42U U63A,0.195
16,A41U G51C,1.27
17,G42U U62C,0.149
18,G42U U62G,0.22
19,G42U U62A,0.2
20,G40A U70A,0.158
21,G40A U70G,0.182
22,A41G C66G,0.255
23,G42A A45G,0.138
24,G40U C48A,0.0709

row,Variant,self-cleavage
1,G40A G56U,0.0994
2,G40A G56C,0.146
3,A43G,0.148
4,A43C,0.141
5,A43C G51U,0.0904
6,A43C C46G,0.245
7,A43C C46A,0.1
8,G40C A41U,0.13
9,A41C G56A,0.155
10,G42U G51C,0.392
11,A41G G56U,0.195
12,A41C C50U,0.713
13,A41C C50G,0.667
14,A43G A44G,0.0966
15,G40C U58C,0.0707
16,G40C U58A,0.16
17,A41G A47U,0.212
18,A41G A47C,0.189
19,G40U U55G,0.232
20,G40U U55C,0.171
21,A41G G68C,0.508
22,A41G C65A,0.693
23,G40A A44U,0.178
24,G40A C50A,0.194

row,Variant,self-cleavage
1,G42U U60A,0.178
2,G42U U60G,0.218
3,G42U U60C,0.241
4,G40U G56U,0.111
5,A41G U52C,0.827
6,G40A A41C,0.274
7,A41G A43G,0.157
8,G42U A49C,0.173
9,G42U U58C,0.259
10,G42U U58G,0.192
11,A43C U63C,0.157
12,A43C G69A,0.105
13,A43C G69U,0.161
14,A43C G69C,0.196
15,A41U U55C,0.762
16,A41U U55A,0.808
17,A41U U55G,0.485
18,G40A A49U,0.0787
19,G40A A49G,0.182
20,G40A G51C,0.238
21,A41U A59C,0.158
22,A41U A59G,0.255
23,G40C A47U,0.0303
24,A41U A47G,0.207

row,Variant,self-cleavage
1,A41U A47U,0.207
2,A41G A59C,0.436
3,G40C U63C,0.164
4,A41C U58A,1.07
5,A41C A64U,0.267
6,A43G A59G,0.094
7,G40U A41C,0.255
8,G40U A41G,0.419
9,G42C A47G,0.116
10,G40U G68A,0.134
11,G40U G68C,0.163
12,A43C G54U,0.241
13,G40C A61G,0.0698
14,A43G A49G,0.0811
15,A41U U52A,1.23
16,A41U U52C,1.11
17,G40U G69C,0.14
18,G42C U55G,0.173
19,G42C U55C,0.158
20,G42C U55A,0.169
21,G42C A43U,0.106
22,A41C U55A,0.405
23,G40U A61G,0.186
24,A43G C65A,0.0913

row,Variant,self-cleavage
1,G40A U67C,0.121
2,G40A U67A,0.108
3,A41G G57C,0.172
4,G42A U63C,0.113
5,G40U C46G,0.136
6,G40C C48G,0.127
7,A41G G69A,0.411
8,A41G G69C,0.534
9,G42C U52G,0.237
10,A41U U67G,0.534
11,A41U U67A,0.364
12,A41U A71C,1.58
13,A41U A71G,1.14
14,A43C U52A,0.136
15,G42A A64C,0.129
16,G40A G42A,0.0412
17,A41C A44C,0.0994
18,A41U U53C,1.25
19,G42A U55C,0.103
20,G42A U55G,0.249
21,G42A U55A,0.104
22,G40C C66A,0.105
23,G40C C66U,0.184
24,G40C C66G,0.519

row,Variant,self-cleavage
1,G42U C46A,0.201
2,G42U U67G,0.127
3,A41U C46A,0.0476
4,A41G A44G,0.249
5,A41G U63C,0.0946
6,A41G U63G,0.248
7,G40U U63G,0.104
8,G40U U63C,0.092
9,A41G U58A,0.46
10,A41G U58C,0.911
11,A43G C46A,0.153
12,A41C U52A,1.17
13,G40C C50A,0.0683
14,G42U A59C,0.118
15,G42U A59G,0.172
16,G42U A59U,0.151
17,G40U U70G,0.0618
18,G42U C50U,0.197
19,A43C C66G,0.0604
20,G42U A71C,0.6
21,G40A C46A,0.184
22,G42A A71C,0.566
23,G42A A71U,0.159
